Measurements published in patent publication US20160311912A1 (RINAT NEUROSCIENCE, published 2016).

Key:
[1] = target: T1, glucagon receptor (target of the KD / T½ of Tables 1A, 1B and 2B) (Homo sapiens (Human), UniProt P47871 26-136); experiment: not stated; 25° C.
T1 construct: not shown: Human Fc carrier (and any linker) of the ECD-Fc fusion

[2] = target: T1, glucagon receptor (target of the KD / …); experiment: not stated; 37° C.

T1 sequence (P47871 26-136 limits assumed): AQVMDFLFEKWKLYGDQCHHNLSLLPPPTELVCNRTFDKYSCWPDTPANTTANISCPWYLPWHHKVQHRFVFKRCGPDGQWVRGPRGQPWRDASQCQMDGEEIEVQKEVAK

Binder | T½ [1] [min] | T½ [2] [min]
H3-C10 (antibody, V domains shown) VH: QVQLVQSGAEVKKPGASVKVSCKASGYTFTDFSVHWVRQAPGQGLEWMGWINTETDETSYADDFKGRVTMTRDTSTSTVYMELSSLRSEDTAVYYCVKSLYWSYGPPDYWGQGTTVTVSS VL: DIQMTQSPSSLSASVGDRVTITCRASQNIRTAVVWYQQKPGKAPKLLIYLATNRHSGVPSRFSGSGSGTDFTFTISSLQPEDIATYYCLQHWTYPFSFGGGTKLEIK | 3.68 | –
H2-A11 (antibody, V domains shown) VH: QVQLVQSGAEVKKPGASVKVSCKASGYTFTDFSVHWVRQAPGQGLEWMGWINTEYDFTSYADDFKGRVTMTRDTSTSTVYMELSSLRSEDTAVYYCVKSRGWSYGPPDYWGQGTTVTVSS VL: DIQMTQSPSSLSASVGDRVTITCRASQNIRTAVVWYQQKPGKAPKLLIYLATNRHSGVPSRFSGSGSGTDFTFTISSLQPEDIATYYCLQHWTYPFSFGGGTKLEIK | 26.3 | –
H2-A8 (antibody, V domains shown) VH: QVQLVQSGAEVKKPGASVKVSCKASGYTFTDFSVHWVRQAPGQGLEWMGWINTEFDFTSYADDFKGRVTMTRDTSTSTVYMELSSLRSEDTAVYYCVKSRGWSYGPPDYWGQGTTVTVSS VL: DIQMTQSPSSLSASVGDRVTITCRASQNIRTAVVWYQQKPGKAPKLLIYLATNRHSGVPSRFSGSGSGTDFTFTISSLQPEDIATYYCLQHWTYPFSFGGGTKLEIK | 20.8 | –
H2-A11-H3-3 (antibody, V domains shown) VH: QVQLVQSGAEVKKPGASVKVSCKASGYTFTDFSVHWVRQAPGQGLEWMGWINTEYDFTSYADDFKGRVTMTRDTSTSTVYMELSSLRSEDTAVYYCVKSLYWSYGPPDYWGQGTTVTVSS VL: DIQMTQSPSSLSASVGDRVTITCRASQNIRTAVVWYQQKPGKAPKLLIYLATNRHSGVPSRFSGSGSGTDFTFTISSLQPEDIATYYCLQHWTYPFSFGGGTKLEIK | – | 1030
H2-A11-H3-1 (antibody, V domains shown) VH: QVQLVQSGAEVKKPGASVKVSCKASGYTFTDFSVHWVRQAPGQGLEWMGWINTEYDFTSYADDFKGRVTMTRDTSTSTVYMELSSLRSEDTAVYYCVESLYWSYGPPDYWGQGTTVTVSS VL: DIQMTQSPSSLSASVGDRVTITCRASQNIRTAVVWYQQKPGKAPKLLIYLATNRHSGVPSRFSGSGSGTDFTFTISSLQPEDIATYYCLQHWTYPFSFGGGTKLEIK | – | 251
H2-A11-H3-2 (antibody, V domains shown) VH: QVQLVQSGAEVKKPGASVKVSCKASGYTFTDFSVHWVRQAPGQGLEWMGWINTEYDFTSYADDFKGRVTMTRDTSTSTVYMELSSLRSEDTAVYYCVKSLFWSYGPPDYWGQGTTVTVSS VL: DIQMTQSPSSLSASVGDRVTITCRASQNIRTAVVWYQQKPGKAPKLLIYLATNRHSGVPSRFSGSGSGTDFTFTISSLQPEDIATYYCLQHWTYPFSFGGGTKLEIK | – | 512
H2-C8 (antibody, V domains shown) VH: QVQLVQSGAEVKKPGASVKVSCKASGYTFTDFSVHWVRQAPGQGLEWMGWINTETRGTSYADDFKGRVTMTRDTSTSTVYMELSSLRSEDTAVYYCVKSRGWSYGPPDYWGQGTTVTVSS VL: DIQMTQSPSSLSASVGDRVTITCRASQNIRTAVVWYQQKPGKAPKLLIYLATNRHSGVPSRFSGSGSGTDFTFTISSLQPEDIATYYCLQHWTYPFSFGGGTKLEIK | 20.6 | –

More lines, now with the values ahead:

T½ [1] [min] | T½ [2] [min] | Binder
– | 892 | H2-E7-H3-3 (antibody, V domains shown) VH: QVQLVQSGAEVKKPGASVKVSCKASGYTFTDFSVHWVRQAPGQGLEWMGWYNLETDETSYADDFKGRVTMTRDTSTSTVYMELSSLRSEDTAVYYCVKSLYWSYGPPDYWGQGTTVTVSS VL: DIQMTQSPSSLSASVGDRVTITCRASQNIRTAVVWYQQKPGKAPKLLIYLATNRHSGVPSRFSGSGSGTDFTFTISSLQPEDIATYYCLQHWTYPFSFGGGTKLEIK
– | 476 | H2-E7-H3-2 (antibody, V domains shown) VH: QVQLVQSGAEVKKPGASVKVSCKASGYTFTDFSVHWVRQAPGQGLEWMGWYNLETDETSYADDFKGRVTMTRDTSTSTVYMELSSLRSEDTAVYYCVKSLFWSYGPPDYWGQGTTVTVSS VL: DIQMTQSPSSLSASVGDRVTITCRASQNIRTAVVWYQQKPGKAPKLLIYLATNRHSGVPSRFSGSGSGTDFTFTISSLQPEDIATYYCLQHWTYPFSFGGGTKLEIK
17.8 | – | H2-F11 (antibody, V domains shown) VH: QVQLVQSGAEVKKPGASVKVSCKASGYTFTDFSVHWVRQAPGQGLEWMGWINTEFDYTSYADDFKGRVTMTRDTSTSTVYMELSSLRSEDTAVYYCVKSRGWSYGPPDYWGQGTTVTVSS VL: DIQMTQSPSSLSASVGDRVTITCRASQNIRTAVVWYQQKPGKAPKLLIYLATNRHSGVPSRFSGSGSGTDFTFTISSLQPEDIATYYCLQHWTYPFSFGGGTKLEIK
21.6 | – | H2-F10 (antibody, V domains shown) VH: QVQLVQSGAEVKKPGASVKVSCKASGYTFTDFSVHWVRQAPGQGLEWMGWINLEFDETSYADDFKGRVTMTRDTSTSTVYMELSSLRSEDTAVYYCVKSRGWSYGPPDYWGQGTTVTVSS VL: DIQMTQSPSSLSASVGDRVTITCRASQNIRTAVVWYQQKPGKAPKLLIYLATNRHSGVPSRFSGSGSGTDFTFTISSLQPEDIATYYCLQHWTYPFSFGGGTKLEIK
– | 442 | H2-E7-H3-4 (antibody, V domains shown) VH: QVQLVQSGAEVKKPGASVKVSCKASGYTFTDFSVHWVRQAPGQGLEWMGWYNLETDETSYADDFKGRVTMTRDTSTSTVYMELSSLRSEDTAVYYCVKSRWWSYGPPDYWGQGTTVTVSS VL: DIQMTQSPSSLSASVGDRVTITCRASQNIRTAVVWYQQKPGKAPKLLIYLATNRHSGVPSRFSGSGSGTDFTFTISSLQPEDIATYYCLQHWTYPFSFGGGTKLEIK
2.26 | – | H3-H9 (antibody, V domains shown) VH: QVQLVQSGAEVKKPGASVKVSCKASGYTFTDFSVHWVRQAPGQGLEWMGWINTETDETSYADDFKGRVTMTRDTSTSTVYMELSSLRSEDTAVYYCVKSRWWSYGPPDYWGQGTTVTVSS VL: DIQMTQSPSSLSASVGDRVTITCRASQNIRTAVVWYQQKPGKAPKLLIYLATNRHSGVPSRFSGSGSGTDFTFTISSLQPEDIATYYCLQHWTYPFSFGGGTKLEIK
13.7 | – | H2-E7 (antibody, V domains shown) VH: QVQLVQSGAEVKKPGASVKVSCKASGYTFTDFSVHWVRQAPGQGLEWMGWYNLETDETSYADDFKGRVTMTRDTSTSTVYMELSSLRSEDTAVYYCVKSRGWSYGPPDYWGQGTTVTVSS VL: DIQMTQSPSSLSASVGDRVTITCRASQNIRTAVVWYQQKPGKAPKLLIYLATNRHSGVPSRFSGSGSGTDFTFTISSLQPEDIATYYCLQHWTYPFSFGGGTKLEIK
– | 318 | H2-C8-H3-4 (antibody, V domains shown) VH: QVQLVQSGAEVKKPGASVKVSCKASGYTFTDFSVHWVRQAPGQGLEWMGWINTETRGTSYADDFKGRVTMTRDTSTSTVYMELSSLRSEDTAVYYCVKSRWWSYGPPDYWGQGTTVTVSS VL: DIQMTQSPSSLSASVGDRVTITCRASQNIRTAVVWYQQKPGKAPKLLIYLATNRHSGVPSRFSGSGSGTDFTFTISSLQPEDIATYYCLQHWTYPFSFGGGTKLEIK
2.4 | – | H3-F5 (antibody, V domains shown) VH: QVQLVQSGAEVKKPGASVKVSCKASGYTFTDFSVHWVRQAPGQGLEWMGWINTETDETSYADDFKGRVTMTRDTSTSTVYMELSSLRSEDTAVYYCVKSLFWSYGPPDYWGQGTTVTVSS VL: DIQMTQSPSSLSASVGDRVTITCRASQNIRTAVVWYQQKPGKAPKLLIYLATNRHSGVPSRFSGSGSGTDFTFTISSLQPEDIATYYCLQHWTYPFSFGGGTKLEIK
